{
  "source": "IntAct's records for PubMed 20498086",
  "parents": {"B1": {"name": "Nuclear pore complex protein Nup98-Nup96 (Homo sapiens), P52948 (parent)", "chain": "MFNKSFGTPFGGGTGGFGTTSTFGQNTGFGTTSGGAFGTSAFGSSNNTGGLFGNSQTKPGGLFGTSSFSQPATSTSTGFGFGTSTGTANTLFGTASTGTSLFSSQNNAFAQNKPTGFGNFGTSTSSGGLFGTTNTTSNPFGSTSGSLFGPSSFTAAPTGTTIKFNPPTGTDTMVKAGVSTNISTKHQCITAMKEYESKSLEELRLEDYQANRKGPQNQVGAGTTTGLFGSSPATSSATGLFSSSTTNSGFAYGQNKTAFGTSTTGFGTNPGGLFGQQNQQTTSLFSKPFGQATTTQNTGFSFGNTSTIGQPSTNTMGLFGVTQASQPGGLFGTATNTSTGTAFGTGTGLFGQTNTGFGAVGSTLFGNNKLTTFGSSTTSAPSFGTTSGGLFGNKPTLTLGTNTNTSNFGFGTNTSGNSIFGSKPAPGTLGTGLGAGFGTALGAGQASLFGNNQPKIGGPLGTGAFGAPGFNTTTATLGFGAPQAPVALTDPNASAAQQAVLQQHINSLTYSPFGDSPLFRNPMSDPKKKEERLKPTNPAAQKALTTPTHYKLTPRPATRVRPKALQTTGTAKSHLFDGLDDDEPSLANGAFMPKKSIKKLVLKNLNNSNLFSPVNRDSENLASPSEYPENGERFSFLSKPVDENHQQDGDEDSLVSHFYTNPIAKPIPQTPESAGNKHSNSNSVDDTIVALNMRAALRNGLEGSSEETSFHDESLQDDREEIENNSYHMHPAGIILTKVGYYTIPSMDDLAKITNEKGECIVSDFTIGRKGYGSIYFEGDVNLTNLNLDDIVHIRRKEVVVYLDDNQKPPVGEGLNRKAEVTLDGVWPTDKTSRCLIKSPDRLADINYEGRLEAVSRKQGAQFKEYRPETGSWVFKVSHFSKYGLQDSDEEEEEHPSKTSTKKLKTAPLPPASQTTPLQMALNGKPAPPPQSQSPEVEQLGRVVELDSDMVDITQEPVLDTMLEESMPEDQEPVSASTHIASSLGINPHVLQIMKASLLTDEEDVDMALDQRFSRLPSKADTSQEICSPRLPISASHSSKTRSLVGGLLQSKFTSGAFLSPSVSVQECRTPRAASLMNIPSTSSWSVPPPLTSVFTMPSPAPEVPLKTVGTRRQLGLVPREKSVTYGKGKLLMDMALFMGRSFRVGWGPNWTLANSGEQLNGSHELENHQIADSMEFGFLPNPVAVKPLTESPFKVHLEKLSLRQRKPDEDMKLYQTPLELKLKHSTVHVDELCPLIVPNLGVAVIHDYADWVKEASGDLPEAQIVKHWSLTWTLCEALWGHLKELDSQLNEPREYIQILERRRAFSRWLSCTATPQIEEEVSLTQKNSPVEAVFSYLTGKRISEACSLAQQSGDHRLALLLSQFVGSQSVRELLTMQLVDWHQLQADSFIQDERLRIFALLAGKPVWQLSEKKQINVCSQLDWKRSLAIHLWYLLPPTASISRALSMYEEAFQNTSDSDRYACSPLPSYLEGSGCVIAEEQNSQTPLRDVCFHLLKLYSDRHYDLNQLLEPRSITADPLDYRLSWHLWEVLRALNYTHLSAQCEGVLQASYAGQLESEGLWEWAIFVLLHIDNSGIREKAVRELLTRHCQLLETPESWAKETFLTQKLRVPAKWIHEAKAVRAHMESDKHLEALCLFKAEHWNRCHKLIIRHLASDAIINENYDYLKGFLEDLAPPERSSLIQDWETSGLVYLDYIRVIEMLRHIQQVDCSGNDLEQLHIKVTSLCSRIEQIQCYSAKDRLAQSDMAKRVANLLRVVLSLHHPPDRTSDSTPDPQRVPLRLLAPHIGRLPMPEDYAMDELRSLTQSYLRELAVGSL", "partner": "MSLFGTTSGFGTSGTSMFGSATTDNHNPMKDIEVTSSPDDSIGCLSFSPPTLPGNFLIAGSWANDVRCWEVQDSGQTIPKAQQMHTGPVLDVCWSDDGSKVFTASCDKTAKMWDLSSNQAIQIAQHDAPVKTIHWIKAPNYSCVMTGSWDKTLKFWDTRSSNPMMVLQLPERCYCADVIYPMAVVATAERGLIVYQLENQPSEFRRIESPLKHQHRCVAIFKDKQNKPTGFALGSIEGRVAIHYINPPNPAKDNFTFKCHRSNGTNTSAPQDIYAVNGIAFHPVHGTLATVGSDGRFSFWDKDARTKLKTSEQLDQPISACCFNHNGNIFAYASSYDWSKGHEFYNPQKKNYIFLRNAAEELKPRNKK"}},
  "data": [
    {"variants_of": "B1", "settings": "with rae1l_human RAE1, P78406", "values": [
      {"variant": "E201K;E202K", "effect of a mutation on the interaction": "disrupting interaction"}
    ]}
  ]
}
